Square brackets hold non-standard residues; d marks the D form. MeBmt = C/C=C/C[C@@H](C)[C@@H](O)[C@H](NC)C(=O)O; NMeI = CC[C@H](C)[C@H](NC)C(=O)O; NMeL = CN[C@@H](CC(C)C)C(=O)O; NMeV = CN[C@H](C(=O)O)C(C)C; Abu = CC[C@H](N)C(=O)O; Sar = CNCC(=O)O
Assays:
cyclophilin (Sigma) = assay: cell-based or functional assay
[1] = target: T1, human recombinant cyclophilin A (Sigma) (human, UniProt P62937 1-165); assay: chymotrypsin-coupled spectrophotometric PPIase assay, tight binding inhibitor fit
T1 construct: Bought protein
T1 sequence (P62937 whole entry): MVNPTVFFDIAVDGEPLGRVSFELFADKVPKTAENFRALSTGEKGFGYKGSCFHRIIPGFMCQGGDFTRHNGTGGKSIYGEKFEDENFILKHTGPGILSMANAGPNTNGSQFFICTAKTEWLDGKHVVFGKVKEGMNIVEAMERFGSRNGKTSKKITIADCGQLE

Chain of cyclophilin (Sigma) (P62937 whole entry): as above

With cyclo([MeBmt][Abu][Sar][NMeI]V[NMeL]A[dA][NMeL][NMeL][NMeV]) (also called [Melle]^4-CsA; NIM811) [[MeIle]^4-CsA] the “PPIase (IC50 of inhibition of cyclophilin PPIase activity, relative to cyclosporin A = 1.0)” value (cyclophilin (Sigma)) was 0.5 relative to CsA and the Ki [1] was 2.11 nM.

Source: USRE43371 (dated 2012)
